Laboratory results taken from paper doi:10.1101/2022.05.17.492379.

Key:
Esrrb = target: T1, Esrrb (Mus musculus, UniProt Q61539 1-433); test: fluorescence polarization
T1 sequence: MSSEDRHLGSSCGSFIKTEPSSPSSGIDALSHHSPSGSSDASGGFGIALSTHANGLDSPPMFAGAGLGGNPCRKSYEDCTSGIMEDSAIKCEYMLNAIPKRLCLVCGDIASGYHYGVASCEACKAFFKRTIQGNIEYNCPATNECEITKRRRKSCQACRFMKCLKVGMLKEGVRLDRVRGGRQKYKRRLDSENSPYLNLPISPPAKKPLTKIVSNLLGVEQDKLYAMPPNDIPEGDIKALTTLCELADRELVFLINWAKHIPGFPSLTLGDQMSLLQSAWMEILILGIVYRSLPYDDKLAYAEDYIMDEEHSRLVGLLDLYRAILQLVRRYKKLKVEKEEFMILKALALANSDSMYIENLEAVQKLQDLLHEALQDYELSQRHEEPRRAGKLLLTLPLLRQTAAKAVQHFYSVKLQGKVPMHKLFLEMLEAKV

Nr5a2 = Nr5a2 (Mus musculus, UniProt P45448 1-560); test: fluorescence polarization
Nr5a2, sequence (P45448 whole entry): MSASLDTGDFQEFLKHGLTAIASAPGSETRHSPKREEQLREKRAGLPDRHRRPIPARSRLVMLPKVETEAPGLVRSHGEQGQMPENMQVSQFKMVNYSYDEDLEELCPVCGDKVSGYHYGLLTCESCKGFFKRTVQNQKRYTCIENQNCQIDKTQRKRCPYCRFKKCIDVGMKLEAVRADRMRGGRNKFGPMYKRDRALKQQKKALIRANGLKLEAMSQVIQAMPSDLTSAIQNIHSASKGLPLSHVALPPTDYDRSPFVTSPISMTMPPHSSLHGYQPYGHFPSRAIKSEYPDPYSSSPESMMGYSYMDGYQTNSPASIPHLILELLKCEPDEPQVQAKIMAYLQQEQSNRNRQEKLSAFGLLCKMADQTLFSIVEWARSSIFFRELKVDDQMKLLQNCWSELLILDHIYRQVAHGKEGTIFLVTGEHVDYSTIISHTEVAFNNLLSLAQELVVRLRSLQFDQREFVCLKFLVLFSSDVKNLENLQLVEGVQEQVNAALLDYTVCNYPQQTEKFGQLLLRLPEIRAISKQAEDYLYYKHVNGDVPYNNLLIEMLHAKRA

B1: Nr5a2 motif DNA (dsDNA)
DNA 1: GAGAGAGTCAAGGCCATGGCTCACT
DNA 2: AGTGAGCCATGGCCTTGACTCTCTC
Kd (Esrrb): 626 ± 133 nM | Kd (Nr5a2): 5.62 ± 1 nM

B2: Esrrb motif DNA (dsDNA)
DNA 1: GAGAGAGTCAAGGTCATGGCTCACT
DNA 2: AGTGAGCCATGACCTTGACTCTCTC
Kd (Esrrb): 8.56 ± 0.69 nM | Kd (Nr5a2): 6.49 ± 0.35 nM
